Measurements from publication PMC10014863, “Structural analysis of the housecleaning nucleoside triphosphate pyrophosphohydrolase MazG from Mycobacterium tuberculosis” (Frontiers in Microbiology, 2023).

Molecular target: the molecule itself
Experiment: SEC

B1: Mycobacterium tuberculosis MazG (Mtb-MazG), full-length wild type (enzyme)
chain: MIVVLVDPRRPTLVPVEAIEFLRGEVQYTEEMPVAVPWSLPAARSAHAGNDAPVLLSSDPNHPAVITRLAAGARLISAPDSQRGERLVDAVAMMDKLRTAGPWESEQTHDSLRRYLLEETYELLDAVRSGSVDQLREELGDLLLQVLFHARIAEDASQSPFTIDDVADTLMRKLGNRAPGVLAGESISLEDQLAQWEAAKASEKARKSVADDVHTGQPALALAQKVIQRAQKAGLPAHLIPDEITSVSVSADVDAENTLRTAVLDFIDRLRCAERAIAVARRGSNVAEQLDVTPLGVITEQEWLAHWPTAVNDSRGGSKKRKGMR
notes: also called WT MazG; full-length MazG
stoichiometry N: 2
